Measured values published in article PMC9965216.

Target: wild-type GroEL chaperonin (GroEL14) (E. coli) (UniProt P0A6F5)
Assay: SDS-PAGE band intensity + absorption spectrophotometry; purified GroEL14-EGFP population assembled in vivo by coexpression; Coomassie-stained bands of WT GroEL (~60 kDa) and GroEL-EGFP (~90 kDa); absorption at 280 and 489 nm
Details: scale: WT subunits per fusion GroEL-EGFP subunit

wild-type GroEL chaperonin (GroEL14) (E. coli), sequence (P0A6F5 whole entry): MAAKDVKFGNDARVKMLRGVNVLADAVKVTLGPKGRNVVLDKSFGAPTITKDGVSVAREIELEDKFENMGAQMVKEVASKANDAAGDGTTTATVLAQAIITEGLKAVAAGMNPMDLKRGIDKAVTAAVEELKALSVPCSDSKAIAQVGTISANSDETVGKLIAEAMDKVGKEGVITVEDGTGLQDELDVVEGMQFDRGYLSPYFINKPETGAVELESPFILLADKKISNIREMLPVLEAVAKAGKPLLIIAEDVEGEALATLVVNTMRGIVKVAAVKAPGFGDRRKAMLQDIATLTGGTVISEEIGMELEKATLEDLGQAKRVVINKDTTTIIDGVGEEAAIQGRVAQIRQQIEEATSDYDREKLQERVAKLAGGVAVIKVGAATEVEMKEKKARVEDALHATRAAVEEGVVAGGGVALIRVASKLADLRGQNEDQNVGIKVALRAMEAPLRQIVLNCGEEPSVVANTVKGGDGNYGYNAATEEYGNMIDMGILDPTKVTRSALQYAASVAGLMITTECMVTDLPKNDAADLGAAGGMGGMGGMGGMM

stoichiometry N: 12
Substance: GroEL-EGFP fusion subunit (from UniProt P0A6F5 1-548; P42212 2-238)
